Article PMC5435687 (Scientific Reports, 2017)
Several values for one entry are separate records, joined by “and”; a condition that tells them apart may be missing. Identical values can stand only once.

Experiments:
SH-SY5Y cells [1] = test: Flow cytometry quantification of cellular uptake and clearance; type: cell-based, human; settings: 500 nM, up to 3 days, 500 nM to 2.5 µM for 5 h
Experimental: SH-SY5Y cells were grown in a 1:1 mixture of minimal essential medium (MEM) and nutrient mixture F-12 Ham supplemented with 10% heat-inactivated fetal bovine serum, 1% MEM non-essential amino acids and 2 mM L-glutamine. The cells were detached (trypsin-EDTA 0.05%, 5 minutes) and passaged twice a week. Cells were plated 1day prior to experiments in either flat-bottomed 96 well plates (Nunc; 60,000 cells/well for experiments <1day and 20,000 cells/well for experiments ≥1day) for flow cytometry or in glass-bottomed culture dishes (MatTek; 25,000 cells/14 mm dish) for microscopy.
Flow cytometry was used to quantify cellular uptake. […] All samples were kept on ice until they were analysed on a Guava EasyCyte 8HT (Millipore, Darmstadt, Germany) that automatically retrieves samples from a 96-well plate. […] The cell counting gate was determined using propidium iodide (0.5 µM, not washed away prior to analysis) and calcein-AM (10 nM, 15 min staining) to distinguish live and dead cells, and for each sample 5,000 cells from within the live gate were counted and analysed. HF488, AlexaFluor488, EGFP and calcein-AM were excited by a 488 nm laser and their fluorescence was detected through a 525/30 nm filter. Propidium iodide and mRFP were excited by the 488 nm laser but detected through a 692/46 nm filter. HF647 and AlexaFluor647 were excited with a 635 nm laser and detected through a 661/19 nm filter. […]

SH-SY5Y cells [2] = test: Confocal imaging based quantification of cellular uptake of Aβ; type: cell-based, human; settings: for number of internalised Aβ peptides per cell (rounded): SH-SY5Y, 1 µM peptide, 8 h, imaging-based quantification, order-of-magnitude statement; for intravesicular Aβ concentration: re-calculated from molecules per cell (1 µM, 8 h) under assumption of total lysosomal load of 10 μm^3 per cell
Experimental: The samples were washed 1x in serum free medium prior to incubation with Aβ peptides and/or other reagents also in serum free medium that was supplemented with 30 mM HEPES and 2% B-27. For experiments including Trf B-27 was omitted as it, according to the media formulation provided by the manufacturer, contains unlabelled Trf that interferes with the experiment. Prior to imaging, cells were stained with 50 nM LysoTracker Deep Red for 30 min and 5 µg/ml Hoechst 33342 was added during the last 10 min of incubation. The cells were thereafter washed 1x, treated with 5 µg/ml FM 4–64 and imaged immediately (for labelling of cellular membrane) or after 10 min incubation at 37 °C (for labelling of cellular membrane and endocytic vesicles). Confocal images were acquired either on a Nikon C2+ confocal microscope equipped with a C2-DUVB GaAsP Detector Unit and using an oil-immersion 60 × 1.4 Nikon APO objective (Nikon Instruments, Amsterdam, Netherlands), or on a home-built Thorlabs CLS system equipped with a Galvo:Resonant scanner, a Multi-Channel Fiber-Coupled laser source and High-Sensitivity GaAsP PMT detectors recording onto ThorImageLS software (Thorlabs Inc, New Jersey, U.S.A.). The scanner unit was mounted onto a Leica DMIRB microscope equipped with an oil immersion 63x NA 1.47 Leica HCX PL APO objective for imaging and co-localisation analysis, or a 40x NA 0.55 Leica N PLAN L CORR air objective for quantification of peptide uptake. The sample was excited and detected sequentially with appropriate excitation laser lines and emission filters.
Images were captured with an open pinhole, corresponding to 7.8 airy units (AUs), in order to sample intensity from intracellular peptide throughout the full thickness of the cells. First, to determine an accurate sampling depth, images were acquired at three focal planes separated by 1 µm between each and analysed for matched summed intracellular intensity. Next, images were acquired with identical settings from a field of view with on average 25 cells/image. […] To obtain the total Aβ emission intensity per cell, all pixel values were summed and divided by the total number of cells in the image (the cell number was determined from the number of nuclei visible in the Hoechst emission channel). […] The mean intensity per pixel was calculated and related to concentration by performing a linear regression of mean intensity from three samples per concentration. The imaging depth was calculated based on imaging parameters and objective specifications generating a point spread function (PSF) for the focal spot. The resulting voxel size was calculated to be 740 nm in the axial direction, whereby 2.5x this voxel was determined to be representative of the sampling probe depth. […]

Substance: Aβ(1–40): Synthetic 40 residue amyloid-β peptide conjugated to HiLyte Fluor HF488 (or HF647) at the N-terminus, from Anaspec
- saturation of intracellular concentration (SH-SY5Y cells [1]): neither Aβ(1–40) nor Aβ(1–42) appears to saturate
- number of internalised Aβ peptides per cell (rounded) (SH-SY5Y cells [2]): 400,000 molecules per cell and ~ 400,000 molecules per cell
- intravesicular Aβ concentration (SH-SY5Y cells [2]): ~ 60 µM

Substance: Aβ(1–42): Synthetic 42 residue amyloid-β peptide conjugated to HiLyte Fluor HF488 (or HF647) at the N-terminus, from Anaspec
- saturation of intracellular concentration (SH-SY5Y cells [1]): neither Aβ(1–40) nor Aβ(1–42) appears to saturate
- number of internalised Aβ peptides per cell (rounded) (SH-SY5Y cells [2]): 800,000 molecules per cell and ~ 800,000 molecules per cell
- intravesicular Aβ concentration (SH-SY5Y cells [2]): ~ 140 µM
